PMC9482650, “Quantitative fragmentomics allow affinity mapping of interactomes” (Nature Communications, 2022)
Numbering of substitutions follows the chain as printed.

T1: APBA1_2, Q02410
T1 sequence (Q02410 742-832, limits assumed, looked up): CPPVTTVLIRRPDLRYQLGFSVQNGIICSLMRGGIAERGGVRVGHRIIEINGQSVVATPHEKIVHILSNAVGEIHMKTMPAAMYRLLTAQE

T2: DLG3_3, Q92796
T2 sequence (Q92796 374-475, limits assumed, looked up): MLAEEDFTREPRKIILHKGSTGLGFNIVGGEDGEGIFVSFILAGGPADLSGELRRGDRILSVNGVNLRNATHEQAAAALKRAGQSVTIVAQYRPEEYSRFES

T3: HTRA3, P83110
T3 sequence (P83110 354-453, limits assumed, looked up): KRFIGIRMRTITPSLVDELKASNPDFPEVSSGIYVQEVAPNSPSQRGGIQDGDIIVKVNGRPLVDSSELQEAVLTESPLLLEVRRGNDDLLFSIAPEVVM

T4: LIN7B, Q9HAP6
T4 sequence (Q9HAP6 88-185, limits assumed, looked up): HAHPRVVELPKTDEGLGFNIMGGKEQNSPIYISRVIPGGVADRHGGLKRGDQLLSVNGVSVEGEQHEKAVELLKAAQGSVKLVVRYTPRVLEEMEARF

T5: LIN7C, Q9NUP9
T5 sequence (Q9NUP9 88-185, limits assumed, looked up): T4 sequence (Q9HAP6 88-185, limits assumed, looked up) with A2S, D13E, V35I, V40I, Q65H, S79K, R89K, A96S

T6: NHERF3_3, Q5T2W1
T6 sequence (Q5T2W1 238-333, limits assumed, looked up): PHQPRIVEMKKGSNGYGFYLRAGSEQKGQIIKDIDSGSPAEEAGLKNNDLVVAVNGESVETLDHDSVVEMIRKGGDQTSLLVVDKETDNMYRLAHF

T7: RHPN1, Q8TCX5
T7 sequence (Q8TCX5 508-602, limits assumed, looked up): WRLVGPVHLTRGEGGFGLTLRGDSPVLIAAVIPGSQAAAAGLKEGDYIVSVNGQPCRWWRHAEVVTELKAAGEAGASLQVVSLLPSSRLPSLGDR

T8: SNTA1, Q13424
T8 sequence (Q13424 82-180, limits assumed, looked up): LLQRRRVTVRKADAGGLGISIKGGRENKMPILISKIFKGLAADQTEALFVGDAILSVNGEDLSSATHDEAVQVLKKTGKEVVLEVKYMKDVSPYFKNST

B1: SDC3, O75056 (peptide)
chain: KPDKQEEFYA
B2: TBPL1, P62380 (peptide)
chain: FVFESRKEIL
B3: SEMA4F, O95754 (peptide)
chain: PLATCDETSI

What was measured:
Experiment in all cases: holdup assay
Design in all cases: key: below the threshold = too weak to quantify, mostly under pKd 3.1 to 4
Conditions in all cases: plain residues with an end cap or a label only (N-terminal biotin on a linker: ado-ado)
APBA1_2, Q02410 = molecular target: T1, APBA1_2, Q02410
ARHGEF12, Q9NZN5-2 = molecular target: ARHGEF12, Q9NZN5-2
Chain of ARHGEF12, Q9NZN5-2 (Q9NZN5 other isoform, or with tags, fused parts or gaps): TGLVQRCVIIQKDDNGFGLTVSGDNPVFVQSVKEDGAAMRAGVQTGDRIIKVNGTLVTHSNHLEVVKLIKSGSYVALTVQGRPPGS

DLG1_1, Q12959 = molecular target: DLG1_1, Q12959
DLG2_2, Q15700 = molecular target: DLG2_2, Q15700
Chain of DLG2_2, Q15700 (Q15700 189-283): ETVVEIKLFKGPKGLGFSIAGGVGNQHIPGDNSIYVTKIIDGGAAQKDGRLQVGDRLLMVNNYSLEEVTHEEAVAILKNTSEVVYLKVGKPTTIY

DLG3_3, Q92796 = molecular target: T2, DLG3_3, Q92796
DLG4_3, P78352 = molecular target: DLG4_3, P78352
Chain of DLG4_3, P78352 (P78352 306-403): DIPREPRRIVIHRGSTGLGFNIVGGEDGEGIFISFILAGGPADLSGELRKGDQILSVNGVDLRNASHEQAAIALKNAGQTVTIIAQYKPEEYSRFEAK

FRMPD2_1, Q68DX3 = molecular target: FRMPD2_1, Q68DX3
Chain of FRMPD2_1, Q68DX3 (Q68DX3 770-861): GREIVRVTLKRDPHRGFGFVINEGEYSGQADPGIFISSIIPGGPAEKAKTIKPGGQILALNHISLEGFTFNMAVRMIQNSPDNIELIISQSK

FRMPD2_2, Q68DX3 = molecular target: FRMPD2_2, Q68DX3
Chain of FRMPD2_2, Q68DX3 (Q68DX3 944-1038): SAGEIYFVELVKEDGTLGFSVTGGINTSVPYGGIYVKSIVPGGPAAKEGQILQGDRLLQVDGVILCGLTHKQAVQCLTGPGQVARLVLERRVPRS

FRMPD3, Q5JV73 = molecular target: FRMPD3, Q5JV73
Chain of FRMPD3, Q5JV73 (Q5JV73 12-100): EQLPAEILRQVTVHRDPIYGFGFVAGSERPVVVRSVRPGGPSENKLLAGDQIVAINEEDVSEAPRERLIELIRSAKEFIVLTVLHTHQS

GOPC, Q9HD26 = molecular target: GOPC, Q9HD26
GORASP1, Q9BQQ3 = molecular target: GORASP1, Q9BQQ3
Chain of GORASP1, Q9BQQ3 (Q9BQQ3 1-208): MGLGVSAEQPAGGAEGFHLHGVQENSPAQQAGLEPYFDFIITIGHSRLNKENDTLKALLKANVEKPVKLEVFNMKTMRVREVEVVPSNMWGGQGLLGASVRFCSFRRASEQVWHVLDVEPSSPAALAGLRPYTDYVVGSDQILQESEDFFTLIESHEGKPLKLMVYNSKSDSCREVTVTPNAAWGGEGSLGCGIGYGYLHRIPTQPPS

GRIP2_3, Q9C0E4 = molecular target: GRIP2_3, Q9C0E4
Chain of GRIP2_3, Q9C0E4 (Q9C0E4 238-339): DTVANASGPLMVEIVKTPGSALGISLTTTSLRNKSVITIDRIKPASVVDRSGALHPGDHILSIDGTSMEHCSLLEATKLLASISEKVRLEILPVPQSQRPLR

HTRA3, P83110 = molecular target: T3, HTRA3, P83110
Inadl_1, Q8NI35 = molecular target: Inadl_1, Q8NI35
Chain of Inadl_1, Q8NI35 (Q8NI35 113-229): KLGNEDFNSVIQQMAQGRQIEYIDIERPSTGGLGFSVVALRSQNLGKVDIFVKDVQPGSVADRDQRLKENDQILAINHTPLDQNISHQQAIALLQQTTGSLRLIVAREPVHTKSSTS

Inadl_10, Q8NI35 = molecular target: Inadl_10, Q8NI35
Chain of Inadl_10, Q8NI35 (Q8NI35 1673-1763): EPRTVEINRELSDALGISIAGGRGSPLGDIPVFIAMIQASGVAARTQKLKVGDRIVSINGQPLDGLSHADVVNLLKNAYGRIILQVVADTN

Inadl_4, Q8NI35 = molecular target: Inadl_4, Q8NI35
Chain of Inadl_4, Q8NI35 (Q8NI35 547-651): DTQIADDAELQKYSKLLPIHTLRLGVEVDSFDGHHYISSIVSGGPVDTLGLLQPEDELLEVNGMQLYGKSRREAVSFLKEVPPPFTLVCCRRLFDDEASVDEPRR

Inadl_6, Q8NI35 = molecular target: Inadl_6, Q8NI35
Chain of Inadl_6, Q8NI35 (Q8NI35 1058-1167): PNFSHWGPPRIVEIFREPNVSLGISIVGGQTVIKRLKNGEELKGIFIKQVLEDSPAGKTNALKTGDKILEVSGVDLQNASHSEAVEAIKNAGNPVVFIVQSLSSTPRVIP

Inadl_8, Q8NI35 = molecular target: Inadl_8, Q8NI35
Chain of Inadl_8, Q8NI35 (Q8NI35 1425-1530): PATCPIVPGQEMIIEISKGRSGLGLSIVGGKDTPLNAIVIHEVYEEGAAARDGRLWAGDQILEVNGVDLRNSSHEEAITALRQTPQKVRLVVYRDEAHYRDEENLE

LIN7B, Q9HAP6 = molecular target: T4, LIN7B, Q9HAP6
LIN7C, Q9NUP9 = molecular target: T5, LIN7C, Q9NUP9
LNX1_2, Q8TBB1 = molecular target: LNX1_2, Q8TBB1
Chain of LNX1_2, Q8TBB1 (Q8TBB1 371-470): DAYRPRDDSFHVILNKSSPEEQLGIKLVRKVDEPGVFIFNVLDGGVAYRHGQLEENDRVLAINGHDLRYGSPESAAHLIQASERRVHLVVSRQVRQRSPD

LNX1_3, Q8TBB1 = molecular target: LNX1_3, Q8TBB1
Chain of LNX1_3, Q8TBB1 (Q8TBB1 500-596): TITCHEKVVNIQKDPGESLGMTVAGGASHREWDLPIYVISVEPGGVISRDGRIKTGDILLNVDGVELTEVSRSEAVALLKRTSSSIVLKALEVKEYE

MAGI1_2, Q96QZ7 = molecular target: MAGI1_2, Q96QZ7
Chain of MAGI1_2, Q96QZ7 (Q96QZ7 456-580): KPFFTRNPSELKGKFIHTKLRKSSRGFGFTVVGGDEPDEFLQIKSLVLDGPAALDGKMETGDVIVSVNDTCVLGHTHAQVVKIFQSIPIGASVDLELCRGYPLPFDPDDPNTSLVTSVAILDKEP

MAGI2_3, Q86UL8 = molecular target: MAGI2_3, Q86UL8
Chain of MAGI2_3, Q86UL8 (Q86UL8 600-682): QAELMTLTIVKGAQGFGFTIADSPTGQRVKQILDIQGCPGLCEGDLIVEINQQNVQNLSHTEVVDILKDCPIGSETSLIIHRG

MAGI3_2, Q5TCQ9 = molecular target: MAGI3_2, Q5TCQ9
Chain of MAGI3_2, Q5TCQ9 (Q5TCQ9 398-503): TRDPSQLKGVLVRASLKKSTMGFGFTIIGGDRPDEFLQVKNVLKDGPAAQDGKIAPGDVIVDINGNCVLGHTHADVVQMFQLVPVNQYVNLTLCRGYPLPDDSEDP

MAST2, Q6P0Q8 = molecular target: MAST2, Q6P0Q8
Chain of MAST2, Q6P0Q8 (Q6P0Q8 1099-1202): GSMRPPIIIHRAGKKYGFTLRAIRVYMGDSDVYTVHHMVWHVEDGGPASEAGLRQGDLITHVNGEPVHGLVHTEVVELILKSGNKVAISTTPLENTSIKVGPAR

NHERF3_3, Q5T2W1 = molecular target: T6, NHERF3_3, Q5T2W1
NHERF4_4, Q86UT5 = molecular target: NHERF4_4, Q86UT5
Chain of NHERF4_4, Q86UT5 (Q86UT5 464-550): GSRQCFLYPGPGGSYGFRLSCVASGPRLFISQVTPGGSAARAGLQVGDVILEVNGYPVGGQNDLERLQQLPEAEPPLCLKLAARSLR

PARD3_3, Q8TEW0 = molecular target: PARD3_3, Q8TEW0
Chain of PARD3_3, Q8TEW0 (Q8TEW0 582-685): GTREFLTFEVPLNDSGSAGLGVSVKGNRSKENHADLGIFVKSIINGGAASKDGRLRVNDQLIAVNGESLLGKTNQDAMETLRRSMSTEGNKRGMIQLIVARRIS

RHPN1, Q8TCX5 = molecular target: T7, RHPN1, Q8TCX5
SNTA1, Q13424 = molecular target: T8, SNTA1, Q13424

Binder	pKd (APBA1_2, Q02410)	pKd (ARHGEF12, Q9NZN5-2)	pKd (DLG1_1, Q12959)	pKd (DLG2_2, Q15700)	pKd (DLG3_3, Q92796)	pKd (DLG4_3, P78352)	pKd (FRMPD2_1, Q68DX3)	pKd (FRMPD2_2, Q68DX3)	pKd (FRMPD3, Q5JV73)	pKd (GOPC, Q9HD26)	pKd (GORASP1, Q9BQQ3)	pKd (GRIP2_3, Q9C0E4)	pKd (HTRA3, P83110)	pKd (Inadl_1, Q8NI35)	pKd (Inadl_10, Q8NI35)	pKd (Inadl_4, Q8NI35)	pKd (Inadl_6, Q8NI35)	pKd (Inadl_8, Q8NI35)	pKd (LIN7B, Q9HAP6)	pKd (LIN7C, Q9NUP9)	other results
B1	below the threshold	below the threshold	below the threshold	below the threshold	below the threshold	below the threshold	below the threshold	below the threshold	4.02	below the threshold	below the threshold	below the threshold	4.41	below the threshold	below the threshold	below the threshold	below the threshold	below the threshold	3.78	below the threshold	pKd (LNX1_2, Q8TBB1): below the threshold; pKd (LNX1_3, Q8TBB1): below the threshold; pKd (MAGI1_2, Q96QZ7): below the threshold; pKd (MAGI2_3, Q86UL8): below the threshold; pKd (MAGI3_2, Q5TCQ9): below the threshold; pKd (MAST2, Q6P0Q8): 4.17; pKd (NHERF3_3, Q5T2W1): below the threshold; pKd (NHERF4_4, Q86UT5): below the threshold; pKd (PARD3_3, Q8TEW0): below the threshold; pKd (RHPN1, Q8TCX5): below the threshold; pKd (SNTA1, Q13424): below the threshold
B2	below the threshold	below the threshold	below the threshold	below the threshold	below the threshold	below the threshold	below the threshold	below the threshold	below the threshold	below the threshold	3.57	below the threshold	below the threshold	below the threshold	below the threshold	below the threshold	below the threshold	below the threshold	below the threshold	3.95	pKd (LNX1_2, Q8TBB1): below the threshold; pKd (LNX1_3, Q8TBB1): below the threshold; pKd (MAGI1_2, Q96QZ7): below the threshold; pKd (MAGI2_3, Q86UL8): below the threshold; pKd (MAGI3_2, Q5TCQ9): below the threshold; pKd (MAST2, Q6P0Q8): 4.95; pKd (NHERF3_3, Q5T2W1): below the threshold; pKd (NHERF4_4, Q86UT5): below the threshold; pKd (PARD3_3, Q8TEW0): below the threshold; pKd (RHPN1, Q8TCX5): below the threshold; pKd (SNTA1, Q13424): below the threshold
B3	below the threshold	3.81	3.59	below the threshold	below the threshold	below the threshold	below the threshold	3.53	below the threshold	below the threshold	below the threshold	below the threshold	below the threshold	below the threshold	below the threshold	below the threshold	below the threshold	below the threshold	3.78	below the threshold	pKd (LNX1_2, Q8TBB1): below the threshold; pKd (LNX1_3, Q8TBB1): below the threshold; pKd (MAGI1_2, Q96QZ7): below the threshold; pKd (MAGI2_3, Q86UL8): below the threshold; pKd (MAGI3_2, Q5TCQ9): below the threshold; pKd (MAST2, Q6P0Q8): 5.42; pKd (NHERF3_3, Q5T2W1): below the threshold; pKd (NHERF4_4, Q86UT5): below the threshold; pKd (PARD3_3, Q8TEW0): 3.9; pKd (RHPN1, Q8TCX5): 4.93; pKd (SNTA1, Q13424): 4.01
